Test results: paper PMC6658616, “Novel Peptide Conjugates of Modified Oligonucleotides for Inhibition of Bacterial RNase P” (Frontiers in Pharmacology, 2019)

Experiments:
E. coli = assay: Conjugate penetration into bacterial cells, flow cytometry; assay type: cell-based, Escherichia coli; settings: 1 µM conjugate in LB medium, 1 h at 37°C, 3'-fluorescein label, mean ± SD from four independent experiments
A. baumannii = assay: as above; assay type: cell-based, Acinetobacter baumannii; settings: 1 µM conjugate in LB medium, 1 h at 37°C, 3'-fluorescein label, mean ± SD from four independent experiments

| Substance | Level of penetration, %, E.coli (E. coli) | Level of penetration, %, A. baumannii (A. baumannii) | Level of penetration, %, A. baumannii (A. baumannii; listed as 5’-Pept2 -pgd-inh3- Flu) |
| --- | --- | --- | --- |
| 5’-Pept1-d(CAAGCAGCxCxTxAxCxCxC)–Flu-3’ [5'-Pept1-pgd-inh3-Flu, 5’-Pept1 conjugate of pgd-inh3 with 3’-fluorescein] | 4,1±0,1% | 1,8±0,2% | – |
| 5’-Pept2-d(CAAGCAGCxCxTxAxCxCxC)–Flu-3’ [5'-Pept2-pgd-inh3-Flu, 5’-Pept2 conjugate of pgd-inh3 with 3’-fluorescein] | 5,3±0,3% | 6,5±0,5% | 6.5% |
| 5’-Pept3-d(CAAGCAGCxCxTxAxCxCxC)–Flu-3’ [5'-Pept3-pgd-inh3-Flu, 5’-Pept3 conjugate of pgd-inh3 with 3’-fluorescein] | 7,0±1% | 1,7±0,3% | – |
| 5’-Pept4-d(CAAGCAGCxCxTxAxCxCxC)–Flu-3’ [5'-Pept4-pgd-inh3-Flu, 5’-Pept4 conjugate of pgd-inh3 with 3’-fluorescein] | 6,4±0,2% | 2,0±0,3% | – |
